The target in this assay is TAF-4 (UniProt O61707). In words: membrane recruitment of GFP::TAF-4 by Myr::FLAG::OMA-1-FL. The conditions noted are these: sites T239.

“OMA-1 (from UniProt G5EC86) MBK-2 coexpressed”: the “other: percent of cells with membrane GFP::TAF-4” value reads like this: (reference: kinase-dead MBK-2 (Y237A) coexpressed) “stronger; reference 16”; (reference: no MBK-2 coexpressed) “stronger; reference 8”.
Take “OMA-1 (from UniProt G5EC86) T239A with MBK-2”: the “other: percent of cells with membrane GFP::TAF-4” value (reference: wild type OMA-1-FL with MBK-2) is recorded as “weaker; reference 48”.

For the origin of these results see PMC2652481.
